Measured values published in patent publication US20200299370A1 (UNIVERSITY OF FLORIDA RESEARCH FOUNDATION, published 2020).
Substitutions are numbered along the chain they refer to.

T1: phosphopeptide DRSGYSpSPGpSPGpTPGSRSR (p193-211) (human, phosphoserine at residues 7 and 10 and phosphothreonine at 13 (S199, S202, T205 of 2N/4R tau); C residue added at the carboxy-terminus)
T1 construct: Unconjugated synthetic peptide coated on ELISA plates; also called tau peptide p193-211
T1 peptide: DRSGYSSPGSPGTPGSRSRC

B1: PHF15 (antibody, V domains shown)
VH: EVQLVESGGGSVKPGGSLKLSCAASGFTFSSYALSWVRQTPEKRLEWVASITSGGSYTYFPDSVKGRFTISRDNAKNTLYLQMSSLRSEDTAMYYCTRPGNYDGAWCAYWGQGTLVTVSS
VL: DILLTQSPAILSVSPGERDSFSCRASQNIGTSIHWYQQRTNGSPRLLIKYASESISGIPSRFSGSGSGTDFTLSVNSVESEDVADYYCQQTKTWPTTFGAGTKLDLK
B2: PHF2 (antibody, V domains shown)
VH: B1 VH with L34M, S53R, A75T, N77D, P99Q, A108D, S120A
VL: DILLTQSPAILSVSPGERVSFSCRASQNIGTSIHWYQQRTNGSPRLLIKYTSESISGIPSRFGGSGSGTDFTLSVNGVESEDVADYYCQQTKTWPTTFGAGTKLELKR
B3: 2D1 (antibody, V domains shown)
VH: EVKLVESGGGLVQPGGSLRLSCATSGFTFTDFSMNWVRQPPGKALEWLGCVRDRAEGYTTEYSASVQGRFTISRDNSQSILYLQMNTLRPEDSATYYCARERAFAYWGQGTLVTVSA
VL: DIVMSQSPSSLAVSAGEKVTMSCKSSQSLLYSRNQKNYLAWYQQRPGQSPKLLIYWASSRESGVSDRFTGSGSGTDFTLTISSVKADDLAVYYCQQYYKSPLTFGAGTKLELKR
notes: also called clone 2D1
B4: 6G12 (antibody, V domains shown)
VH: EVNLEESGGGLVQPGGSMKLSCVASGFTFSDYWMNWVRQSPEKGLEWVAEIRLKSDNFATHYAESVKGRFTISRDDSKSSVYLQTNNLRAEDTGIYYCTLMRGDYGAEFAYWGQGTLAIVSA
VL: DIVMSQSPSSLAVSVGEKVTLTCKSSRSLLYRGNQENFLAWYQQKPGQSPKLLIYWASTRESGVPDRFTGSGSGTDFTLTINSVKAEDLAVYYCQQYYTYPYTFGGGTKLEIKR
B5: 10G12 (antibody, V domains shown)
VH: EVKLEESGGGLVQPGGSMKLSCVASGFTFSNYWMNWVRQSPETGLEWVAEIRLKSYNYATHYAESVTGRFTISRDDSKNRVYLQMNNLGPDDTGIYYCTTGGAYHPFDYWGQGTTLTVSS
VL: B4 VL with L21M, R27Q, G33N, E36K, F38Y, N82S
notes: also called 10G2
B6: 7F2 (antibody, V domains shown)
VH: B5 VH with E1Q, K3Q, E5Q, E6Q, G9A, G10E
VL: EIVLTQSIPSLTVSAGERVTINCKSNQNLLWSGNQRYCLVWHQWKPGQTPTPLITWTSDRYSGVPDRFIGGGSVTDFTLTISSVQAEDVALYFCQHHLHIPPWTFGGGTKLEIKR
notes: also called clone 7F2

Legend:
[1] = molecular target: T2, full-length S404A 2N/4R human tau phosphorylated in vitro with GSK3β (human, UniProt P10636 2-758, phosphorylated in vitro with GSK3β; sites not stated); test: immunoblot, recombinant tau phosphorylated in vitro
T2 construct: Recombinant, E. coli BL21; also called S404A tau; 5404A
Description: (§1) Tau proteins (0.2 mg/ml) were phosphorylated with either glycogen synthase kinase 3β (GSK3β; 2.5 U/μl; New England Biolabs, Ipswich, Mass.) or p42 mitogen-activated protein kinase (MAPK; 0.5 U/μl; New England Biolabs, Ipswich, Mass.) in 50 mM Tris, pH 7.5, 10 mM MgCl₂, 0.1 mM EDTA, 2 mM DTT, 0.1% Brij 35, ATP 200 μM for 2 hours at 30° C. followed by heat inactivation at 95° C. for 5 minutes. Samples were diluted in SDS-sample buffer and 100 ng of each tau protein was loaded on a separate lane on SDS-polyacrylamide gels for immunoblot analysis.
(§2) To determine the specificity of these monoclonal antibodies, full-length WT, S396A and 5404A 2N/4R human tau were in vitro phosphorylated with known tau kinases (p42 MAPK or GSK3β) and used these tau proteins for immunoblotting analysis (FIG. 1).

[2] = molecular target: T3, full-length S396A 2N/4R human tau phosphorylated in vitro with GSK3β (human, UniProt P10636 2-758, phosphorylated in vitro with GSK3β; sites not stated); test: as above
T3 construct: Recombinant, E. coli BL21; also called S396A tau
Description: as §1, §2

[3] = molecular target: T1, phosphopeptide DRSGYSpSPGpSPGpTPGSRSR …; test: ELISA, hybridoma medium on plates coated with the unconjugated immunising peptide
[4] = molecular target: T4, WT 0N/3R human tau, non-phosphorylated (incubated without any kinase) (human, UniProt P10636 2-758); test: immunoblot, recombinant 0N/3R tau
T4 construct: Recombinant, E. coli BL21; also called non-phosphorylated tau
Description: (§3) WT, S199A, 5202A and T205A 0N/3R tau (mutants numbered according to 2N/4R human tau) were incubated with p42 MAPK or GSK3β or without any kinase as described in “Material and Methods”. […] The mobilities of molecular mass markers are shown on the left.
as §1
(§4) To determine the specificity of these monoclonal antibodies, WT, S199A, 5202A and T205A 0N/3R human tau (mutations numbered according to the sequence of 2N/4R human tau) were phosphorylated with p42 MAPK or GSK3β and immunoblotting analysis was performed (FIG. 3).

[5] = molecular target: T5, WT 0N/3R human tau phosphorylated in vitro with p42 MAPK or GSK3β (human, UniProt P10636 2-758, phosphorylated in vitro with p42 MAPK or with GSK3β; T205 (2N/4R numbering) phosphorylated by both, other sites not stated); test: immunoblot, recombinant 0N/3R tau
T5 construct: recombinant, E. coli BL21; also called phosphorylated tau
Description: as §3, §1, §4

[6] = molecular target: T6, T205A 0N/3R human tau phosphorylated in vitro with p42 MAPK or GSK3β (human, UniProt P10636 2-758, phosphorylated in vitro with p42 MAPK or with GSK3β; sites not stated); test: immunoblot, recombinant 0N/3R tau phosphorylated in vitro
T6 construct: Two preparations, one for each kinase; also called phosphorylated T205A tau
Description: as §3, §1, §4

T6 sequence (P10636 other isoform, or with tags, fused parts or gaps T205A T205A limits assumed): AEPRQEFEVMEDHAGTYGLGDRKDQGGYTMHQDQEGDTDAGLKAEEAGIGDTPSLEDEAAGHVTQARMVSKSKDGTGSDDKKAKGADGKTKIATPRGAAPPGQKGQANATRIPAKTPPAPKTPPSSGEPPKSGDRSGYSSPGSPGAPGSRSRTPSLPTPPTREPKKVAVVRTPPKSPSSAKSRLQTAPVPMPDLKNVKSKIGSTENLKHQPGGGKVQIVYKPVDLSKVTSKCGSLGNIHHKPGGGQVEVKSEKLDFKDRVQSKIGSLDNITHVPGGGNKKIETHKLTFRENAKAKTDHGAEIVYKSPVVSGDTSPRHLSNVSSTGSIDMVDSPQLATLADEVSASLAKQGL
T3 sequence (P10636 other isoform, or with tags, fused parts or gaps S396A S396A limits assumed): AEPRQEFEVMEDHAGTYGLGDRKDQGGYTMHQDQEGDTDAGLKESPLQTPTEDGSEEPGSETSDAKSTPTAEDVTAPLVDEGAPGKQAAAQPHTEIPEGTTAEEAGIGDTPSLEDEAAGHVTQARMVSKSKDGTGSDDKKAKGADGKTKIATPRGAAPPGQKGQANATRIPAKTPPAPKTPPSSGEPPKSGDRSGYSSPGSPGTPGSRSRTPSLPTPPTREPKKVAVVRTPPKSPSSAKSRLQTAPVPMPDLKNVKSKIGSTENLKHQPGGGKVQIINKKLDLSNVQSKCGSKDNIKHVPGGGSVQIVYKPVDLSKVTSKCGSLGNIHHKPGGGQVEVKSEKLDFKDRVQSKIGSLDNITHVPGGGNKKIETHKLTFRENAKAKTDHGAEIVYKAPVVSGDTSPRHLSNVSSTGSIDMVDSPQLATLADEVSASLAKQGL
T2 sequence (P10636 other isoform, or with tags, fused parts or gaps S404A S404A limits assumed): as the sequence (P10636 other isoform, or with tags, fused parts or gaps S396A S396A limits assumed) above, with A395S, S403A counted along it
T4 sequence (P10636 other isoform, or with tags, fused parts or gaps limits assumed): as the sequence (P10636 other isoform, or with tags, fused parts or gaps T205A T205A limits assumed) above, with A146T counted along it
T5 sequence (P10636 other isoform, or with tags, fused parts or gaps limits assumed): as the sequence (P10636 other isoform, or with tags, fused parts or gaps T205A T205A limits assumed) above, with A146T counted along it

| Binder | binding result [1] | binding result [2] | binding result [6] | further results |
| --- | --- | --- | --- | --- |
| B1 | no binding | no binding |  |  |
| B2 | no binding | no binding |  |  |
| B3 |  |  |  | binding result [3]: binds; binding result [4]: binds; binding result [5]: binds |
| B4 |  |  | no binding |  |
| B5 |  |  | no binding |  |
| B6 |  |  | no binding |  |
